Laboratory results from the DeepSol protein solubility set.

Experiment: soluble on expression in E. coli; label from the status in PepcDB or PDB records

Sequence | soluble on expression in E. coli
MKVTIIGASGRVGSATALLLAKEPFMKDLVLIGREHSINKLEGLREDIYDALAGTRSDANIYVESDENLRIIDESDVVIITSGVPRKEGMSRMDLAKTNAKIVGKYAKKIAEICDTKIFVITNPVDVMTYKALVDSKFERNQVFGLGTHLDSLRFKVAIAKFFGVHIDEVRTRIIGEHGDSMVPLLSATSIGGIPIQKFERFKELPIDEIIEDVKTKGEQIIRLKGGSEFGPAAAILNVVRCIVNNEKRLLTLSAYVDGEFDGIRDVCIGVPVKIGRDGIEEVVSIELDKDEIIAFRKSAEIIKKYCEEVKNL | soluble
GTEETAKVVPMAVITPAINQLTDQEKAEGWALLFDGKTTKGWRGAHKDAFPDHGWMVKDGELIVQKSDGSESTNGGDIVTEGEYSAFEFSVDFKITEGANSGIKYFVTEQEKQKGSAYGLEFQLLDDAKHPDAKLYTTFPGSRTLGSLYDLKKSENIHFNGVGEWNTAVVKVFPNNHVEHWLNGVKVLEYERGSKEFRDLVKGSKYADPSYNAGGAFGEAPKGHILLQDHGDEVAFRNIKVKELK | soluble
MSVVDMSAEKMTKLEENLQRAVALKKTVDRWRNFHIHCMWQTTLDQRRNLFAALRMKDTKEQELALSNKQLLVVRQAALHELFEKEYQQYQQELNQMGKAFYEERL | not soluble
MAHHHHHHMLMFCRVPEDTAVRISLDVKKHFVNTERTSITQAELENYIRCSMIAAGFAQEHAQLFSVVTQFHAERIPLVLFLAGPERCGKTTLAHLLAARINCSTVINAEVLRDISASIDDSLPLFAVPETSSPDSTPSMLRGAEVSAVVAAEVDKAVREGRAIIVEGENLSFAGFHRFLEPSFQLSTGAVILGLVMEICGGEAETDASHAYVQALPNLHPVYSTERLTVLAADIGDLAKGVRGIPTVYVARYTTVADNVCLSVFLHDIVVKRIIAELKRRGRVL | not soluble
GPGSMKRLLDSAKHLLRGGSLGYLASGEPYHPFGEDFGLTVFPDYIQLREKLALRSGYVDVYTQRSASIKLSDGRFQLPPLPKHSFLPLVERLEQDGIVPRGWLNNQTANLYEPEDFIRAHIDNLFVYDDIFAVISLGANALLRFVHVQNGEELDVVIPDGSVYIMSGPSRYVYFHMVLPVEAQRVSIVFRRSILNSDGGFRPVSTPLGDLMPYRSTQILNTLYAKQIGGVRVAVDDKYLEKEEIGAFDTGKWVKGLHPLRDWTLLSQLDEDEARVLELREKRYLDVDLSWRFTELRKRYKELEDMLRV | not soluble
LLSPPIALKPLDSSAKWRIIYWNPNGCDKTCLKQLNMLGRVRLSFGRKLYQVDEWLLLSNKDSLIAEELKPILKEQDIHVAALSLTEMSKLSTLYPEAKIFIANPDNYLILSYQPGCNPGDIYKDLKLLLNTTEIKSG | soluble
MRTVSHPTPLRRAPVQRRSAERLTRILDACADLLDEVGYDALSTRAVALRADVPIGSVYRFFGNKRQMADALAQRNLERYAERVTERLTEAGDGGWRGALDTVLDEYLAMKRTAPGFSLIDFGNQIPVGDRHAVPNHRVAERLTELLSGYLGRRPDDDLRRVFLVAVETADTLVQLAFRVAPDGDEKIIEEARELLRAYLGRVLD | soluble
SDHVDLPYNLTATKIDSDVFVVTDRDFYSSNVLVAKMLDGTVVIVSSPFENLGTQTLMDWVAKTMKPKKVVAINTHFHLDGTGGNEIYKKMGAETWSSDLTKQLRLEENKKDRIKAAEFYKNEDLKRRILSSHPVPADNVFDLKQGKVFSFSNELVEVSFPGPAHSPDNVVVYFPKKKLLFGGCMIKPKELGYLGDANVKAWPDSARRLKKFDAKIVIPGHGEWGGPEMVNKTIKVAEKAVGEMRL | soluble
DHWLRQDLRQMFIEELGSNAREIIQFVVGSHDIGKATPLFQYQKAQKGEVWDSIRYAIDRTGRYQKPLPSSYLVKKTSGGPNRHEQWSSFASKNEYLKPSAAAKENWIGLAIGGHHGRFEPVGYGRHQRKAAEDLAKSGWSAAQQDLLRALEKASGITRASLPSELSPELTLVLSGLTILADRISSTESFVITGARMIDDGTLHLATPIDWLKTRKLDSEKHVAKTVGIYHGWNNHESAIHSILKGYDPRPLQTIALQNQVGLLNLMAPTGNGKTEAAILRHSLKENDRLIFLLPTQATSNAIMRRVQGIYSDTPNVAALAHSLASVEDFYQTPLSVFDDHYDPSKEQFESSMSG | not soluble
MANEMKVFLLTKQGQEVMERQRKKQVLLSDPKAVYQDHFVSVRPDCLVVKKYFIPSMLPFEFHWDKIETMTYLPQNNENKLLVPNRGQDQEGRWWATDVLRPHERELHLYNVRIDVADTEPSKSGFTVIHIDQFLKSCRHLLPYSCKLSGCVWSE | not soluble
MGSDKIHHHHHHMEENKQTLYNDELLDILPDGVIIFNISGEVIQLNRQALTELHVHSSVNAMMPLPTNILFKLLNNKEDILSVILEKIRQGEQTYSLSEHTFMQEQVDYTQFPIRGDFATIKEDGNLKKILFFFRNITVELTQEYILNTALQRTRIYPWYYDINRSEFTLDNRYFEHLGISAGENNTLTMEEYVNMIHPDDRQAMADAFIVQLSGMETFDKSVPFRLHRGDGTWEWFEGQSTYIANISGHPYRLVGICMSIQEYKDIENTLIEARKKAEESDRLKMAFLANMSHEIRTPLNAIVGFSDVIGSTYDELSEEERADFVRLISINSEHLVRLIDDVLDLSKIESNTIKFTFTDCSLRSLMIDVEKEQTMKPISEIEIRALLPNEDVYINTDATRLKQVISNFINNARKFTEKGYIHFGYAVDSVDASSVHVFVEDTGSGIPKECQKEIFDRFYKVDTFKQGTGLGLSICKTIVEHLQGDISVESEMGKGSRFIVTLPFERQTED | not soluble
MLLSIITVAFRNLEGIVKTHASLAHLAQAEDISFEWIVVDGGSNDGTREYLENLNGIYNLRFVSEPDNGIYDAMNKGIAMAQGKFALFLNSGDIFHQDAAYFVRKLKMQKDNVMITGDALLDFGDGHKIKRSAKPGWYIYHSLPASHQAIFFPVSGLKKWRYDLEYKVSSDYALAAKMYKAGYAFKKLNGLVSEFSMGGVSTTNNMELCADAKKVQRQILHVPGFWAELSWHLRQRTTSKTKALYNKS | not soluble
MAHHHHHHMFLRVPLFVAHLRLLPRQRIYMGAHCGGNIWANGRSVSVHFMVGWCYTMSRDVAEASVSFKPLRRLAHTPYSKERDEEFSSIGMGHEDMMVGHVLLDEVKYQPLIHVKVLPCHFLEARSDTGESQVVPTSMCVHHIREDDYAALMARFGNDTSPVARLWRVSEDVIYPSCD | not soluble
MYEYSFNPNIDHEPGSVESQQSTIYSDSDDSDDSFLDDEVIPPKEQAMRKIEFALADIKRQMDNKEKSLTLRISTSKSHFCLRYTAKRKGKLDRDLHCLHQVYDLLENDKRSTKRELYYEHKAVYGNQKYLDSSIKSICELLNESRANLNILSCGRGIIRGAITFLVENVGVIDARVQEVLITDALLFSNIISEADFILVVEKDTTFQKLMDENFQAMFPRGILATSKGYPDIATRNVLKMLSEKRKFPIYGLFDADPHGIEIYLTYKYGPTKEFAEGRGAFVPTIEWIGLFPTDFHRFTIDQSQCLPLVRTDFVKIEKMIPRSIQLGEIVVTRELDWMIQNKFKMELESINMCGQEYMARFLIAPRVMSIEKEIPIQPETIINEYHEDSQCSLSTDDDREAKDDDYIDSDAEEKFQNMIDNDSD | not soluble
MNRSIDSIIAKKVSHDVGILIFQYLNDIEPLIQQSLTAAKLKDFYGLKGKYSKGRFVCPFHHGADNPTSLSMNDNKRCFHCNACGKSGTYLEFIMYMQNISGRNSYNDAKIFAANHFTKLNLGFNSIADFEQKLKDKILERYRKTNSLRYTDYYDIWLLPERYFSSKEQSQVRQYQEEQQTKPSLEVSLSNSTNKPGFILESLDLEMTIRHLKAQNIIVNGITDYDEAVQVAKNSKLIKDFTKNADKLNSVDKLTDYMSKKYNIDIDTALKYGLIFFDKSSQHQLYYSDFFMLNNRVLFPVRDHETGIIVGYQCRRTDLSAPRHYKYLNITDYQDNLITNENGTTYRDFVPFKVGNFLFNLYELKGKCINTLWITEGIADAIKLSSMGYDAVSLGQANLTDYQIYLIDKYFGKDVTLNLFFDNDDNKIGQNKSIAAAYRLWQFGFRNIRIINTFKEMGKDITDCSVKLHDDDMLRLFINHWEKQAYSFAPASNEDLSALLKTGLYSESEILFIDPRDVERIISFGEMLNKYLDFKNMTYQQLKLLKKLCSFKEDEIKILLSLSTKDFLDVQNTNEQSCHKEQL | not soluble
WKRGKISTQLDDDEFRAGMRKAQVIDVREKKEFDAGHILGARNIPYSQMKNRTQELRSDLPVYLYDQGRTFSGRAAMLLSKKGFTQLYILKNGYQRWTGKTKKTKY | soluble
MKKLFNQVLVAAGVLALLAGCASEEENVIMAPLPIVKSEFTPKTLWSASVGDGVGHYFSKLAPDYAYDKVFVASRDGVVKALDPQNGKVIWTTDLEIEGSARLSGGITAAFGKLFIGSENGVVNALDAETGEPLWASAIEGEVLAAPAADNNIVIVNTSRGALIALNQEDGAQKWTISTEVPNLTLRGDSRPTAVAGGVFWGTPSGRLAAAIAERGQLIWQQPVGQPKGATEIDRLVDVDASPLVIGGTLFTVGFNGQLIAIDLRSGQPIWKRNYSSATDMATDGSRLYLVTDKDHLVAVDTRSGTELWSNTQLEHRLLTAPKMIDDYLVVGDAEGYLHWIDRNSGEFIAQQLVNDSGFAVGPLALNDGYVIVTRNGQIKKLTIQQ | not soluble
MGKPSGERILQMKIALVMLAAGNSRRFGSNKLLYEIEGKPMYLLTLEKLKKASEKIPESEIIVVTQYEEIVKKAGEMKIPVFINPRPEDGISLSMQIGLMSVRDTDACLFTVSDQPWLEADTVVALTELFENEKKGMACIRWNGKTGNPCIFGQKYYEELMEISGDKGGKKIIKKHPEDVAYLQIRNARELQDADEPDVFTAGNLR | not soluble
MSLKRALAALVLLGAVAQAQTGHAGHSVGSVSTGVSMPAMSKQMVSALGPLRGRAFDIKFAQLMMDHHQMALDMAGQELSSGKNAQVRAAAKKVVAAQQQEIALMTGWLRKWTGKVYVPQTLPMVLTGTVNTDRWFLTEMLPHHQGAVDMSKLAAGRSGSSEVKKLALSIIRSQTAEMNTYRQLLKTVKEGHHHHHH | soluble
MMIMREILISECIELLRSHKFIVSKPLGRSCFDMVASKEDIRLILKILKNIDSLSRDQSKELKKISKILHGTPLIIGIRTRNAPMEHGVVYDRYNIKAVTFETFRDYLEGSPPMVYANRGGFFVKIDGKVLKEVREAMGISVGKLAEVAGVSRKAIYKYETQMANPSVDVALKIEEFLDVPLVKGIDLFEPVDDEDVENKLENLEDFKKEAINFLNELGFKSFVVEKAPFDAVAEKDMDNNLNILLTNIEEKDNEEVKRKALFVRELSRLLDGYSLLILEEKEKEYKNLPVVSIEELKKMDDALELIEHIKSMLRDIR | soluble
GEEQPQQISVASGTPVSADQTPATPQEQPRAPWWDASPGVQRLITLKDPQVVCEAASAGLLKTLRFVKYLPCFQILPLDQQLVLVRSCWAPLLMLELAQDHLHFEMMEIPETNTTQEMLTTRRQETEGPEPAEPQATEQPQMVSAEAGHLLPAAAVQAIKSFFFKCWSLNIDTKEYAYLKGTVLFNPDLPGLQCVKYIEGLQWRTQQILTEHIRMMQREYQIRSAELNSALFLLRFINSDVVTELFFRPIIGAVSMDDMMLEMLCAKL | soluble
MNILNIKEGQHYIAKIESHSFVDGEGVRCSVYVSGCPFQCKGCYNVKAQNFKYGEPFELEMLEEILDYCAPSYIEGLSILGGEPFCNLFITLQLVEAFRQRFGHTKTIWVWTGFLFEYLKQQDDARKSLLEHIDVLVDGMFIQHLYRPNLPYKGSLNQRVIDVQSSLQKEQVIEYLTKLEHHHHHH | not soluble
